Results from patent US7091027B1, “Transgenic amorpha-4,11-diene synthesis” (GenoClipp Biotechnology B.V., priority 1998, dated 2006).

Test system: T1, CC(C)=CCC/C(C)=C/CC/C(C)=C/CO[P@@](=O)(O)OP(=O)(O)O
T1 construct: This enzyme preparation was used for the measurement of enzyme characteristics such as molecular weight and Km; from tissue; host or cells: young leaves of greenhouse-grown A. annua
Assay: Enzyme kinetics of Mono-Q purified amorphadiene synthase in the [3H]-FPP assay
Type: biochemical, A. annua
Conditions: other: 5- and 10-fold diluted Mono-Q eluted enzyme preparation, [3H]-FPP 0.25–100 μM, 30 min at 30° C.
Method: During enzyme isolation and preparation of the assays, all operations were carried out on ice or at 4° C. Ten grams of frozen young leaves from greenhouse-grown A. annua were ground in a pre-chilled mortar and pestle in 40 ml of pre-chilled buffer containing 25 mM MES (pH 5.5), 20% (v/v) glycerol, 25 mM sodium ascorbate, 25 mM NaHSO3, 10 mM MgCl2 and 5 mM DTT (buffer A) slurried with 1 g polyvinylpolypyrrolidone (PVPP) and a spatula tip of purified sea sand. Ten grams of polystyrene resin (Amberlite XAD-4, Serva) were added and the slurry was stirred carefully for 10 min and then filtered through cheesecloth. The filtrate was centrifuged at 20,000 g for 20 min (pellet discarded), and then at 100,000 g for 90 min. […]
The remainder of the supernatant was added to 12.5 g DEAE anion exchanger (Whatman DE-52), which had been rinsed several times with buffer A, and stirred carefully for 10 min. […] The molecular weight was determined using size-exclusion chromatography. 200 μl of the Mono-Q eluent was loaded on a Superdex 75 (H/R10/30, Pharmacia Biotech) and eluted in the same buffer as used for Mono-Q. Enzyme activities in 0.5 ml fractions were determined as described for Mono-Q, but using undiluted eluent. […] Enzyme-kinetics were determined using 5- and 10-fold diluted Mono-Q eluted enzyme preparation and [^3H]-FPP concentrations ranging from 0.25–100 μM. […]

Chain of amorphadiene synthase (Artemisia annua) (chain, as listed by the source): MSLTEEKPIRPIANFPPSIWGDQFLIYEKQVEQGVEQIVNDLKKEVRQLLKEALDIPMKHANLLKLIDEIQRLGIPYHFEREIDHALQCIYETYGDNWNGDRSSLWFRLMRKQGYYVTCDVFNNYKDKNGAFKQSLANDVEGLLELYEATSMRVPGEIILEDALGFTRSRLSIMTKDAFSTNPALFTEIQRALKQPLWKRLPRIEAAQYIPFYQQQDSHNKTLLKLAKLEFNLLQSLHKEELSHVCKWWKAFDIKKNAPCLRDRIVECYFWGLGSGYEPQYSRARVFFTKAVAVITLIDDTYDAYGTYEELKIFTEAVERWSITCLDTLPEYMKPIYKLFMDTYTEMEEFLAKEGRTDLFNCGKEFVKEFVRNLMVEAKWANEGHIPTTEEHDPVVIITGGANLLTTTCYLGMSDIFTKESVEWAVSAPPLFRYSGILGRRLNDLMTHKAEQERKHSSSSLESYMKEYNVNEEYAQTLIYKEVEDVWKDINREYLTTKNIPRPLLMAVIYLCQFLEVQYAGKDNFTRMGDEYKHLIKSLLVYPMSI

Q: How did the Km turn out when amorphadiene synthase (Artemisia annua) was run?
A: 0.6 µM
